{"source": "paper PMC3814599", "origin": "cited, not measured here", "target": "HIV-1 capsid (CA) NTD (Human immunodeficiency virus 1) (UniProt O93182)", "note": "Several values for one entry are separate records, joined by “and”; a condition that tells them apart may be missing. Identical values can stand only once."}
{"substance": "NUP358 (from UniProt P49792)", "values": [{"measurement": "Kd", "result": "150 µM and 16 µM"}]}
